Measured values published in patent US20250243274A1 (JIBE THERAPEUTICS, published 2025).

Target: the molecule itself
Assay: SDS-PAGE, no laddering in the reduced lane

B1: JIB34 (bispecific antibody)
heavy: QVQLQQPGAELVKPGASVKMSCKASGYTFTNYWINWVKQRPGQGLEWIGDIYPGGGITNYNEKFKTKATLTLDTSSSTVYMQLSSLTSEDSAVYYCSRSYGKYFDYWGQGTTLIVSSASTKGPSVFPLAPSSKSTSGGTAALGCLVKDYFPEPVTVSWNSGALTSGVHTCPAVLQSSGLYSLSSVVTVPSSSLGTQTYICNVNHKPSNTKVDKKVEPKSSDKTHTGGHHHHHH
light: DIKMTQSPSSMYASVGERVTITCKASQDIKSYLTWYQKKPWKSPRTLIFYSTRLADGVPSRFSGSGSGQDFSLTISSLESDDTATYYCLQHDESPFTFGGGTKLEIKRTVAAPSVFIFPPSDEQLKSGTASVVCLLNNFYPREAKVQWKVDNALQSGNSQESVTEQDSKDSTYSLCSTLTLSKADYEKHKVYACEVTHQGLSSPVTKSFNRGESGGGGSGGGGSGGGGSDIQMTQSPSSLSASVGDRVTITCRASQDIRNYLNWYQQKPGKAPKLLIYYTSRLESGVPSRFSGSGSGTDYTLTISSLQPEDFATYYCQQGNTLPWTFGQGTKVEIKGGGGSGGGGSGGGGSEVQLVESGGGLVQPGGSLRLSCAASGYSFTGYTMNWVRQAPGKGLEWVALINPTKGVSTYNQKFKDRFTISVDKSKNTAYLQMNSLRAEDTAVYYCARSGYYGDSDWYFDVWGQGTLVTVSS
notes: HP6017 Fab (bDS) with HzUCHT1 scFv on the light chain; also called anti-Fc HP6017 HzUCHT1 IgR
- binding result: no binding
